We go through 3 molecules from CN117043185A (NUMAB INNOVATION AG, dated 2023).

The experiment addresses T1, human ROR1 expressed on cells (MDA-MB-231, JIMT-1, CLL patient cells) (human, UniProt Q01973 30-937).
T1 construct: whole, on cells; also called hROR1; plasma-membrane human ROR1
Kind of experiment: flow cytometry on MDA-MB-231 cells. For orientation: A flow cytometer gives signals particle by particle.

T1 sequence (Q01973 30-937): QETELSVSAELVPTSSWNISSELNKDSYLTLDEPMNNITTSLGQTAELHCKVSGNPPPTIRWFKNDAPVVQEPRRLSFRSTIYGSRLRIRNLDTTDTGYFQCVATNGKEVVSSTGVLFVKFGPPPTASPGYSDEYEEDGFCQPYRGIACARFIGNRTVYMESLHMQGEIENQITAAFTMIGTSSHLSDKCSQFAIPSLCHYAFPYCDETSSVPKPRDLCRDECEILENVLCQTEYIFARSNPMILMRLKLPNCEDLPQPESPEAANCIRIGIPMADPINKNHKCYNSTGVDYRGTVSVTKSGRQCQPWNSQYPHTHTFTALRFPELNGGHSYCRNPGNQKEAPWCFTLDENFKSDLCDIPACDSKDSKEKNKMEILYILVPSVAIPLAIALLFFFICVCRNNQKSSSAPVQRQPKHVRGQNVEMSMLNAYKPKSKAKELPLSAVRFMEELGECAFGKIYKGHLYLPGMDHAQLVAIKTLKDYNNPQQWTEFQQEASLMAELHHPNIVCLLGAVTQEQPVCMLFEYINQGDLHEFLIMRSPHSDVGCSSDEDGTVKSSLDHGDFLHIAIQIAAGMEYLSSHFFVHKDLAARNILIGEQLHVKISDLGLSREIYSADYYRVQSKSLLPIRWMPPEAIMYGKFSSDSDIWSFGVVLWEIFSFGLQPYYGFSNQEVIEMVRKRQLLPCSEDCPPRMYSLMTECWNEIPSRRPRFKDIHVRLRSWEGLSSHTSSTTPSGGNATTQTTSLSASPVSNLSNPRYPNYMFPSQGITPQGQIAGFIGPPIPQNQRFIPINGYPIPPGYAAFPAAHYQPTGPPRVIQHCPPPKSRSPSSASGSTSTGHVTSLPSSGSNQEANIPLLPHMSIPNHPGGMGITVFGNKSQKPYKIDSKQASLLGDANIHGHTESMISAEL

B1: PRO2062 (scFv, V domains shown)
VH: QSQLVESGGGLVQPGGSLRLSCAVSGLSLSRNAMSWVRQAPGKGLEWIGIILTSGSTYYASWAKGRFTISKDNSKNTVYLQMNSLRAEDTAVYFCVRGIASSSLKSFWGQGTLVTVSS
VL: AQQLTQSPSSLSASVGDRVTITCQASQNVWNNNYLSWFQQKPGKPPKLLIVTASTLASGVSSRFSGSGSGTDFTLTISSLQPEDFATYYCAGGFSGEIRAFGTGTKVTVLG
Take B1: the “fold higher apparent binding affinity than reference Fab PRO2213” value was about 3 fold.

B2: PRO2271 (scFv, V domains shown)
VH: QSQLVESGGGLVQPGGSLRLSCAVSGIDLSRNAMSWVRQAPGKGLEWIGIILTSGSTYYASWAKGRFTISKTSTTLDLQMNSLRAEDTAVYFCVRGIASSSLKSFWGQGTLVTVSS
VL: AQQLTQSPSSLSASVGDRVTITCQASQNVWNNNYLSWFQQKPGKPPKLLIVTASTLASGVSSRFSGSGSGTDFTLTISSLQPEDFATYYCAGGFSGEIRAFGTGTKVTVLG
Turning to B2, the “fold lower apparent binding affinity than original scFv PRO2062” value is about 2 fold.

B3: PRO2060 (scFv, V domains shown)
VH: QSQVVESGGGLVQPGGSLRLSCAVSGFDLSSYAVSWVRQAPGKGLEWIGIIYPRANTYYASWAKGRFTISKDNSKNTVYLQMNSLRAEDTAVYFCARDRYDSGAYLYTTYFNLWGQGTLVTVSS
VL: DVQMTQSPSSLSASVGDRVTITCRASENIYSGLAWYQQKPGKPPKLLIYRASTLASGVSSRFSGSGSGTDFTLTISSLQPEDFATYYCQGGYYSSSSTYIAFGTGTKVTVLG
In the case of B3, the “fold lower apparent binding affinity than reference Fab PRO2213” value is about 3 fold.
